# Test results as given in the RNAGym collection of RNA variant scans (doi:10.7554/elife.80360).
# B1: CPEB3 Ribozyme (parent)
# chain: GGGGGCCACAGCAGAAGCGUUCACGUCGCGGCCCCUGUCAGAUUCUGGUGAAUCUGCGAAUUCUGCUGU
# Variants of: B1
# Test: self-cleavage, relative activity (ratio to wild type); higher = more cleavage; co-transcriptional
row,Variant,self-cleavage
1,C35U U55C,0.699
2,C35U U55G,0.653
3,G37C A52G,0.264
4,G37C A52C,0.216
5,G37A G48U,0.251
6,G37C A60U,0.306
7,G37C A60C,0.236
8,G37A U53C,0.231
9,U36A U61C,0.171
10,G37A G47U,0.36
11,G37A G47A,0.312
12,G37A G47C,0.308
13,G37C C39G,0.167
14,G37C C39A,0.215
15,G37C C39U,0.268
16,C35U U43C,0.866
17,G37C U49C,0.286
18,G37C U49G,0.234
19,U36G U64G,0.195
20,U36G U64C,0.188
21,U36A A52U,0.166
22,U36A A52G,0.178
23,U36A C66U,0.187
24,U36A C66A,0.294

row,Variant,self-cleavage
1,U36G C54U,0.293
2,U36A C57A,0.213
3,U36A C57U,0.233
4,U36A C57G,0.231
5,C35U U44A,0.889
6,C35U U44C,0.919
7,U36G C45G,0.251
8,U36G C45A,0.276
9,G37A A60G,0.209
10,C35U U46G,0.967
11,C35U U46A,0.907
12,C35U U46C,0.976
13,U36G C63G,0.181
14,U36G C63U,0.315
15,U36G U62C,0.21
16,U36C A42C,0.732
17,U36C A42G,0.77
18,U36C A42U,0.869
19,G37C G65A,0.246
20,G37C G65U,0.237
21,U36A U69A,0.377
22,U36A U69C,0.558
23,U36G U69A,0.297
24,U36G U67C,0.239

row,Variant,self-cleavage
1,U36G U67A,0.0785
2,C35U U49C,0.956
3,C35U U49G,0.909
4,U36A U38C,0.216
5,U36A U38G,0.185
6,U36A U38A,0.25
7,C35U U67G,1.03
8,C35U U67C,0.979
9,U36A A60G,0.269
10,U36A A60U,0.242
11,U36A A60C,0.19
12,G37A U46G,0.281
13,G37A U46C,0.338
14,G37A U46A,0.375
15,G37A G68U,0.385
16,G37A G68A,0.377
17,G37C U53A,0.256
18,U36C C45A,0.865
19,U36C C45G,0.866
20,U36C C54A,0.736
21,U36C C54U,0.973
22,U36C C54G,0.765
23,U36C C66A,0.603
24,U36C C66G,0.621

row,Variant,self-cleavage
1,U36C G58U,0.963
2,U36C U69C,1.05
3,U36C U69G,1.02
4,C35U U62A,0.813
5,C35U U62G,0.804
6,U36C U53G,0.544
7,U36C U53C,0.806
8,U36C U53A,0.767
9,G37C U43C,0.203
10,G37C U43A,0.264
11,U36C G47A,0.953
12,U36C G47C,0.993
13,U36C G47U,0.892
14,G37C C57U,0.192
15,G37C C57A,0.242
16,G37C C57G,0.189
17,G37C A40U,0.267
18,G37C A40G,0.181
19,G37C A40C,0.242
20,G37C C45A,0.168
21,G37C C45U,0.203
22,U36A C63G,0.213
23,U36A C63U,0.185
24,U36G A52U,0.271

row,Variant,self-cleavage
1,U36G A52C,0.318
2,U36G A52G,0.296
3,C35U U69G,1.01
4,C35U U69C,1.08
5,U36C G56C,0.46
6,U36C G56U,0.696
7,U36C G56A,0.814
8,G37C U46C,0.174
9,U36C U43C,0.856
10,U36C U43A,0.787
11,U36G A40G,0.219
12,U36G A40C,0.236
13,U36C A40U,0.64
14,U36C A40C,0.506
15,U36C A40G,0.858
16,U36G U55A,0.238
17,U36C U46A,0.922
18,U36C U46C,0.987
19,U36C U44C,0.688
20,U36C U44A,0.854
21,U36C U44G,0.859
22,C35U U53A,0.833
23,U36C G48U,0.981
24,U36C G48C,0.948

row,Variant,self-cleavage
1,U36C G48A,0.94
2,U36G U46C,0.21
3,U36C G37C,0.237
4,U36C G37U,0.287
5,U36G U38G,0.2
6,U36G U38C,0.248
7,C35U U64A,0.83
8,C35U U64C,0.836
9,U36C G50C,0.895
10,G37C A51U,0.171
11,G37C A51C,0.251
12,U36C C39G,0.847
13,U36A G56C,0.201
14,U36A G56U,0.177
15,G37C G47A,0.189
16,G37C G47U,0.209
17,U36A U53A,0.282
18,U36A U53G,0.286
19,G37A G56C,0.232
20,G37A G58C,0.344
21,G37C G58C,0.277
22,G37C G58A,0.242
23,G37C G58U,0.353
24,U36A C54U,0.35

row,Variant,self-cleavage
1,U36A C39A,0.233
2,U36G C57G,0.109
3,G37C G48A,0.182
4,G37C G48U,0.288
5,U36A G41C,0.22
6,U36A G41U,0.251
7,U36G G65A,0.207
8,U36G G65C,0.25
9,U36C U64C,0.823
10,U36C U64G,0.762
11,G37A U61A,0.202
12,G37A U64A,0.246
13,G37A U64G,0.254
14,U36A G65U,0.203
15,U36A G65C,0.31
16,G37C U55A,0.25
17,G37C U55C,0.267
18,G37C C63A,0.261
19,G37C C63U,0.281
20,G37C C63G,0.25
21,U36C A51C,0.88
22,U36C A51U,0.879
23,U36G G48A,0.236
